According to publication PMC6141180 (2018):

Columns and labels:
[1] = target: T1, p38α (MAPK14), nonphosphorylated (mouse, UniProt P47811 1-360); test: ITC
[2] = target: T2, dual (pThr180, pTyr182) phosphorylated p38α (mouse, UniProt P47811 1-360, phosphothreonine at 180, phosphotyrosine at 182); test: ITC; p38α dually phosphorylated
[3] = target: T1, p38α (MAPK14), nonphosphorylated; test: FP; displacement of fluorescein-labeled MKK3b peptide
[4] = target: T2, dual (pThr180, pTyr182) phosphorylated …; test: ITC; p38α dually phosphorylated; TAB1 pSer423

T1 sequence (P47811 whole entry): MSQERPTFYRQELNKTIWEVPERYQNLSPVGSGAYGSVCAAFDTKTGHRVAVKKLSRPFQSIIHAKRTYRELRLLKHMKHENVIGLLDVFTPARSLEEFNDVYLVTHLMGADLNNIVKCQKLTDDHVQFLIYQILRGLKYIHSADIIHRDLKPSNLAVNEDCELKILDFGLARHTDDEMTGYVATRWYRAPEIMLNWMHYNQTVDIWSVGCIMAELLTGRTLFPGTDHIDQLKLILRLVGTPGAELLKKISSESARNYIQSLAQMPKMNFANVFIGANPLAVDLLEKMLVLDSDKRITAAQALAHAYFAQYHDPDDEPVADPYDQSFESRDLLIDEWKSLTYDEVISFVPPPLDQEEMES
T2 sequence (P47811 whole entry): as above

Kd [1] [nM] | Kd [2] [nM] | IC50 [3] [nM] | Kd [4] [nM] | Binder
2900 | 2000 | 11000 |  | Ac-RVYPVSVPYSSAQSTSKTSVTLSLVMPSQ-NH2 [TAB1 (residues 384–412) peptide]
1500 |  |  |  | TAB1 (residues 1–438) (domain or fragment) MAAQRRSLLQSEQQPSWTDDLPLCHLSGVGSASNRSYSADGKGTESHPPEDNWLKFRSENNCFLYGVFNGYDGNRVTNFVAQRLSAELLLGQLNTEHTEADVRRVLLQAFDVVERSFLESIDDALAEKASLQSQLPEGVPQHQLPPQYQKILERLKALEREISGGAMAVVAVLLNSKLYVANVGTNRALLCKSTVDGLQVTQLNMDHTTENEDELFRLSQLGLDAGKIKQMGVICGQESTRRIGDYKVKYGYTDIDLLSAAKSKPIIAEPEIHGAQPLDGVTGFLVLMSEGLYKALEAAHGPGQANQEIAAMIDTEFAKQTSLDAVAQAVVDRVKRIHSDTFASGGERAKFCPRHEDMTLLVRNFGYPLGEMSQPTPTPAPGGRVYPVSVPYSSAQSTSKTSVTLSLVMPSQGQMVNGSHSASTLDEATPTLTNQSPT
 |  |  | 1700 | TAB1 (residues 1–438) phosphorylated at Serine 423 (domain or fragment, phosphoserine at 423) MAAQRRSLLQSEQQPSWTDDLPLCHLSGVGSASNRSYSADGKGTESHPPEDNWLKFRSENNCFLYGVFNGYDGNRVTNFVAQRLSAELLLGQLNTEHTEADVRRVLLQAFDVVERSFLESIDDALAEKASLQSQLPEGVPQHQLPPQYQKILERLKALEREISGGAMAVVAVLLNSKLYVANVGTNRALLCKSTVDGLQVTQLNMDHTTENEDELFRLSQLGLDAGKIKQMGVICGQESTRRIGDYKVKYGYTDIDLLSAAKSKPIIAEPEIHGAQPLDGVTGFLVLMSEGLYKALEAAHGPGQANQEIAAMIDTEFAKQTSLDAVAQAVVDRVKRIHSDTFASGGERAKFCPRHEDMTLLVRNFGYPLGEMSQPTPTPAPGGRVYPVSVPYSSAQSTSKTSVTLSLVMPSQGQMVNGSHSASTLDEATPTLTNQSPT
 |  | 15000 |  | Ac-GKSKRKKDLRISCMSKP-NH2 [MKK3b peptide, unlabeled]
